These results are taken from US20220025032A1 (Novartis, published 2022).

Test [1] has as its target T1, Human BTC (human, UniProt P35070 32-111).
T1 construct: Soluble human BTC of the Biacore, ELISA, MSD and cell assays; also called human betacellulin; soluble human BTC
T1 sequence: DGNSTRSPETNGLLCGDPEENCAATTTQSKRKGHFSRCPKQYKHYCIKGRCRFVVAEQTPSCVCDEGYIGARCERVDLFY
The test is described as follows: inhibition of BTC binding to ErbB1; y axis MSD units, x axis Fab (pM); blocked partner ErbB1.

In test [2] the target is T1, Human BTC. Nature of the test: cell-based inhibition of BTC binding to ErbB4.
Test [3] deals with T2, membrane-bound human BTC on 293F-hBTC cells (human, UniProt P35070 32-111).
T2 construct: the transfected construct is not described; also called membrane-anchored BTC
T2 sequence: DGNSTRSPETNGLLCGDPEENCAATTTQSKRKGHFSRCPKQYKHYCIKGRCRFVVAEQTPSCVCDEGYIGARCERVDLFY
The test is described as follows: flow cytometry, 293F cells with BTC against 293F.

In test [4] the target is T1, Human BTC. The test is described as follows: MSD-based inhibition of BTC binding to ErbB4.
Test [5] deals with T2, membrane-bound human BTC on 293F-hBTC …. The test is described as follows: flow cytometry on 293F cells with membrane-bound human BTC, anti-human Fab detection; y axis Percent Positive Binding, x axis Antibody concentration (nM). On the procedure: After washing the cells, the cells were dissociated using Versene at 37° C. The cells were washed with FACS buffer and plated at 100 μl in a 96 well plate using cells at 1×10⁶ cells/ml. Then 100 μl of a serial dilution of antibodies starting at 50 nM was used. The cells were incubated, washed and then treated with the secondary anti-human Fab-FITC antibody. The antibodies only bound to the cells expressing BTC. After which the cells were washed and analyzed on the Attune Flow Cytometry. All data analysis was carried out using Flow Jo software.
In FIG. 6A, Flow cytometry was used to assess the binding of NVS11 to membrane-bound BTC using an anti-human Fab antibody for detection.

Test [6] has as its target T1, Human BTC. Nature of the test: cell-based inhibition of BTC binding to ErbB1.
The target in a further test is T3, Human BTC-avitag-biotin (human, UniProt P35070 32-111, biotin on the avitag).
T3 construct: also called biotin-BTC; soluble human BTC-avitag-biotin
T3 sequence: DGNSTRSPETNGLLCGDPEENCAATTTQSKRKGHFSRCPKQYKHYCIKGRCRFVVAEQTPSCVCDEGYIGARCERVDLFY
Nature of the test: flow cytometry, BTC-ErbB1 Cell Binding Inhibition: antibody pre-incubated with 15 nM human BTC-avitag-biotin, HKB11 cells over-expressing human ErbB1; y axis Percent Inhibition. On the procedure: HKB11 over-expressing either ErbB1 or ErbB4 cells were plated 1×10⁵ cells/well. Cells were washed once with FACS buffer by spun down at 1200 rpm for 5 minutes and supernatant removed. Next, the Fab sample dilutions and BTC were prepared in FACS buffer. Human BTC-avitag-biotin was diluted to a fixed concentration of 15 nM. The test Fab samples were prepared at a starting concentration of 40 nM and titrated for 9 points at a serial dilution of 1:2. Both biotin-BTC and the test Fab samples are incubated for 30 minutes at room temperature. The pre-incubated samples were then added to the cell plate at 100 μl per well in duplicate and incubated for 1 hour on ice. The plate was then washed once in FACS buffer and spun down at 1200 rpm for 5 minutes and supernatant removed. […]
Measurements were performed on Attune Flow Cytometry machine. Data were analysed using the Flow Jo software. The live cell populations analysed were gated in forward and side scattering (FSC-A/SSC-A dot plot). The interval gate was established on the control histogram, which was obtained with sample incubated in streptavidin-Alexa Fluor488 only, and subsequently, determined percent of positive binding events of cells carrying membrane-bound receptor ErbB1 or ErbB4 and biotin-BTC. The median of fluorescence intensity (MFI) value was also derived for the live cell population. […]

B1: NVS1 (Fab, V domains shown)
VH: QVQLVQSGAEVKKPGSSVKVSCKASGGTFSSYAISWVRQAPGQGLEWMGGIVPWMGEAVYAQKFQGRVTITADESTSTAYMELSSLRSEDTAVYYCARSSSTYGIHAFDYWGQGTLVTVSS
VL: DIQMTQSPSSLSASVGDRVTITCRASQSISNFLNWYQQKPGKAPKLLIYAASNLQSGVPSRFSGSGSGTDFTLTISSLQPEDFATYYCQQYDDFPMTFGQGTKVEIKR
notes: also called Fab NVS1; NVS1 Fab
For the molecule B1, the IC50 with Human BTC [1] amounted to 0.301 nM; with Human BTC-avitag-biotin it was 2.5 nM. The “Cell-based binding inhibition BTC/ErbB4” value with Human BTC [2] was > 90%. Besides, in test [3], the “Binding to membrane-anchored BTC (median, X above 293F)” value was > 10 X above 293F. For the same molecule, the “MSD-based binding inhibition BTC/ErbB4” value with Human BTC [4] is > 90%. This molecule registered an EC50 in test [5] of 0.133 nM. Besides, the “Cell-based binding inhibition BTC/ErbB1” value with Human BTC [6] was > 90%.
